Target: murine B7-DC (murine) (UniProt Q9WUL5)
Experiment: flow cytometry; murine bone marrow derived DC incubated with or without soluble PD-1.Ig, then stained with sHIgM12 (the competitor read out)

Chain of murine B7-DC (murine) (Q9WUL5 20-247): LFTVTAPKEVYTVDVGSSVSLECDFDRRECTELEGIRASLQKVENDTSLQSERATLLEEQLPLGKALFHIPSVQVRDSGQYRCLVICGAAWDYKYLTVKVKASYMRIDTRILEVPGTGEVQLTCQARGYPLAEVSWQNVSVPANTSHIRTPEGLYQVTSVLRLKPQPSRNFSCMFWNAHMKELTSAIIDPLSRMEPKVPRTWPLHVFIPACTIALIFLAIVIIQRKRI
Chain of PD-1.Ig fusion protein (Fc fusion) (Q02242 25-169): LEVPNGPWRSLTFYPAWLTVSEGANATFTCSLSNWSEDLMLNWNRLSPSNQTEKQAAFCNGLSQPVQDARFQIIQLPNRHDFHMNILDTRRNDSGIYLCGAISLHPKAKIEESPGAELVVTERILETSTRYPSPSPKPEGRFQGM

sHIgM12 staining left, percent of the level in the absence of PD-1: 50%
Substance: PD-1.Ig fusion protein (Fc fusion)
